± gives the standard deviation of the averaged measurements.
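Note: PSI is a weighted mean of sequencing reads over stability bins, variants kept only with over 10 reads, mCherry proximal and sfGFP distal, peptide attached via GGGS linker.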

The subject of this data set is Saccharomyces cerevisiae. In words: protein stability index of tFT-peptide fusion (C-terminal peptide) (PSI (0-1 scale)); higher = more stable (slower turnover). Conditions: genetic background: wild type; temperature: 30 C.
For SRPPTFPPFFPS, the protein stability index is 0.702 ± 0.015.

For SRPRPPPTPALP, the protein stability index came out at 0.679 ± 0.0056.

SRPRPSPSPFIA: the protein stability index is 0.708 ± 0.045.

SRPSSFRLRFLH showed a protein stability index of 0.393 ± 0.18.

As for SRRGVVGLRVGI, the protein stability index worked out at 0.674 ± 0.033.

With SRRSTIRCSTSC, the protein stability index was 0.717 ± 0.036.

For the sequence SRSAPPPSPGMT, the protein stability index was 0.746 ± 0.052.

The sequence SRSGVKKDIRKL yielded a protein stability index of 0.657 ± 0.059.

SRSRPLCGVSGV had a protein stability index of 0.687 ± 0.052.

Take SRTLPHRTAPHC: the protein stability index worked out at 0.758 ± 0.054.

Consider SRVERRRTSREG, for which the protein stability index turned out to be 0.672 ± 0.083.

The sequence SRVVHSHRSFRP showed a protein stability index of 0.6843 ± 0.0047.

With SRWDSDRGGERR, the protein stability index worked out at 0.805 ± 0.027.

In the case of SRWTLRTSMDLG, the protein stability index amounted to 0.616 ± 0.013.

For SSASDVYQVINS, the protein stability index was found to be 0.676 ± 0.009.

SSASSLTIYTRG had a protein stability index of 0.728 ± 0.024.

The sequence SSCWRAWAVNGL showed a protein stability index of 0.677 ± 0.063.

Turning to SSESPPLLPRPL, the protein stability index came out at 0.754 ± 0.032.

In turn, SSFGPSFLTLFF displayed a protein stability index of 0.70403 ± 0.00044.

The sequence SSFGSALRPRGV gave a protein stability index of 0.677 ± 0.029.

For the sequence SSFPPPPAAPPP, the protein stability index was determined as 0.667 ± 0.041.

In the case of SSGASTSIVSTL, the protein stability index was found to be 0.678 ± 0.015.

As for SSKVFCRVAKRE, the protein stability index was 0.724 ± 0.026.

Sequence SSLLLLFYPPLP came in with a protein stability index of 0.712 ± 0.016.

Sequence SSLPALRSPCHP gave a protein stability index of 0.738 ± 0.06.

In turn, SSLPPLRPFSPS displayed a protein stability index of 0.726 ± 0.075.

SSLPPPPRSPPH had a protein stability index of 0.715 ± 0.029.

As to SSLPRPSHSLSL, the protein stability index came to 0.617 ± 0.068.

As to SSLRPPPPLPPP, the protein stability index was 0.682 ± 0.012.

SSLSPPPPLPPW gave a protein stability index of 0.706 ± 0.075.

Sequence SSNSRPTGSGGS gave a protein stability index of 0.694 ± 0.1.

Regarding SSPLPPPHASHP, the protein stability index was 0.7104 ± 0.0043.

In turn, SSPLPPSLPSSR showed a protein stability index of 0.671 ± 0.025.

SSPLWDGLPRLT displayed a protein stability index of 0.736 ± 0.028.

Sequence SSPPPAFPRASP showed a protein stability index of 0.633 ± 0.015.

SSPPPPVPPPPS showed a protein stability index of 0.725 ± 0.082.

In the case of SSPPSPPPPTPS, the protein stability index was 0.702 ± 0.031.

SSPSFVVFPFVS: the protein stability index was found to be 0.685 ± 0.017.

Regarding SSPSPALLFPAR, the protein stability index is 0.715 ± 0.036.

SSPSSLPAPPSA registered a protein stability index of 0.666 ± 0.039.

SSRLLRGGTGFL: the protein stability index was 0.722 ± 0.029.

In turn, SSRPPLPPPRIH came in with a protein stability index of 0.618 ± 0.017.

On to SSRRVGRWGGLG, for which the protein stability index is 0.618 ± 0.11.

The sequence SSRYVATANICR displayed a protein stability index of 0.69 ± 0.013.

SSSCRGGVSVLV returned a protein stability index of 0.679 ± 0.044.

Turning to SSSRHHTSLFSP, the protein stability index came out at 0.679 ± 0.014.

Sequence SSSYPFPAPALR had a protein stability index of 0.683 ± 0.043.

Sequence SSTVGKEGTSRI gave a protein stability index of 0.69 ± 0.048.

In the case of SSVNRTADGTKP, the protein stability index amounted to 0.69 ± 0.02.

SSWWPVRRTRLG showed a protein stability index of 0.587 ± 0.022.

SSYYTGVVTACL: the protein stability index amounted to 0.659 ± 0.052.

With STAELSNSLIGR, the protein stability index was found to be 0.703 ± 0.033.

STGSAISSLSDR gave a protein stability index of 0.68 ± 0.11.

In the case of STHLPPLPATLP, the protein stability index was determined as 0.784 ± 0.1.

STILSAEKTKLG returned a protein stability index of 0.707 ± 0.02.

Sequence STNIDQKKKEEK had a protein stability index of 0.7 ± 0.03.

Consider STPPPPHSASRS, for which the protein stability index was determined as 0.728 ± 0.059.

Regarding STPRLERDGTTI, the protein stability index was found to be 0.635 ± 0.014.

In turn, STRLFTHPRFLP returned a protein stability index of 0.68 ± 0.013.

STSRSFFFCSFL showed a protein stability index of 0.644 ± 0.072.

STSSPSSSTLLP returned a protein stability index of 0.719 ± 0.031.

With STSWDDLLYHSG, the protein stability index was 0.716 ± 0.059.

With STTLKIHRKNRK, the protein stability index came out at 0.725 ± 0.063.

Regarding STTQFTLSATRI, the protein stability index came to 0.717 ± 0.093.

As for STVKARVLIITS, the protein stability index was 0.5231 ± 0.0032.

STVTSGCLKRIS registered a protein stability index of 0.723 ± 0.03.

Take STYIMTFTSWEP: the protein stability index was 0.68 ± 0.0078.

For the sequence SVCLLKSWHERQ, the protein stability index turned out to be 0.725 ± 0.033.

SVDEARSVRCVI: the protein stability index was determined as 0.661 ± 0.025.

As for SVFFFLPIYFPF, the protein stability index was determined as 0.633 ± 0.033.

As for SVFVDNLAFSLD, the protein stability index was 0.708 ± 0.071.

As for SVGFYMLECVDD, the protein stability index is 0.688 ± 0.0099.

Sequence SVGGVGVEIQSV gave a protein stability index of 0.629 ± 0.15.

Take SVGVGSFVVLGV: the protein stability index is 0.6543 ± 0.0024.

As to SVHRRRSLLTPL, the protein stability index was determined as 0.706 ± 0.05.

Sequence SVKHTFAHSVNS yielded a protein stability index of 0.6442 ± 0.0018.

SVKTGAAKDRLE had a protein stability index of 0.6929 ± 0.003.

On to SVLDAVGGSVTA, for which the protein stability index came out at 0.668 ± 0.092.

Take SVLRPPAAPPFL: the protein stability index was 0.674 ± 0.046.

With SVLVLGRSRPSF, the protein stability index is 0.688 ± 0.047.

These data come from the supplement of paper PMC10724198.
